From patent publication US20240218079A1 (ASTRIA THERAPEUTICS, published 2024)
Like-named read-outs stand apart in the source and are kept apart here.

Key:
[1] = target: T1, human FcRn (Sino Biological, Cat. No. CT009-H08H) (human, UniProt P55899 24-297; P61769 21-119); test: SPR, Biacore T200, human FcRn on the chip, pH 6.0
T1 construct: Coupled to the Biacore chip; also called hFcRn

[2] = target: T2, human plasma kallikrein (human, UniProt P03952 20-390; P03952 391-638); test: cell-based or functional assay
[3] = target: cynomolgus monkey plasma kallikrein (cynomolgus monkey, UniProt P03952 20-638 (human entry), limits assumed); test: cell-based or functional assay
[4] = target: rat plasma kallikrein (rat, UniProt P14272 20-638, limits assumed); test: cell-based or functional assay
[5] = target: rabbit plasma kallikrein (rabbit); test: cell-based or functional assay
[6] = target: T2, human plasma kallikrein; test: cell-based or functional assay; remark: listed apart in the source
[7] = target: T3, human prekallikrein (human, UniProt P03952 20-638); test: SPR, 37 C, 50 mM HEPES, 150 mM NaCl, 1.3 mM Ca++, 1 mg/ml BSA, 0.02% tween-20, pH 7.4
T3 construct: Zymogen form

[8] = target: T2, human plasma kallikrein; test: SPR, pH 7.4, 37° C.
[9] = target: T2, human plasma kallikrein; test: SPR, 37° C.; reference: human prekallikrein
[10] = target: T3, human prekallikrein; test: SPR, 37 C, 50 mM HEPES, 150 mM NaCl, 0.1 mM Ca++, 1 mg/ml BSA, 0.02% tween-20, pH 6.0
[11] = target: T2, human plasma kallikrein; test: as above
[12] = target: T2, human plasma kallikrein; test: cell-based or functional assay; remark: listed apart in the source
[13] = target: T2, human plasma kallikrein; test: SPR, pH 6.0, 37° C.; pH 6.0, 37° C.
[14] = target: T1, human FcRn (Sino Biological, Cat. No. …); test: SPR, Biacore T200, human FcRn on the chip, pH 6.0; pH 6.0; hFcRn on the chip
[15] = target: T1, human FcRn (Sino Biological, Cat. No. …)
[16] = target: T3, human prekallikrein; test: SPR, 37 C, 50 mM HEPES, 150 mM NaCl, 0.1 mM Ca++, 1 mg/ml BSA, 0.02% tween-20, pH 6.0 (this table has no pH labels; lower row taken as pH 6.0 as in the labelled table beside it)
[17] = target: T2, human plasma kallikrein; test: SPR, pH 7.4, 37° C.; pH 7.4, 37° C.
[18] = target: T3, human prekallikrein; test: SPR, 37 C, 50 mM HEPES, 150 mM NaCl, 1.3 mM Ca++, 1 mg/ml BSA, 0.02% tween-20, pH 7.4 (this table has no pH labels; upper row taken as pH 7.4 as in the labelled table beside it)
[19] = target: T2, human plasma kallikrein; test: SPR, 37 C, 50 mM HEPES, 150 mM NaCl, 0.1 mM Ca++, 1 mg/ml BSA, 0.02% tween-20, pH 6.0 (this table has no pH labels; lower row taken as pH 6.0 as in the labelled tables beside it)
[20] = target: T2, human plasma kallikrein; test: SPR, 37 C, 50 mM HEPES, 150 mM NaCl, 1.3 mM Ca++, 1 mg/ml BSA, 0.02% tween-20, pH 7.4 (this table has no pH labels; upper row taken as pH 7.4 as in the labelled tables beside it)
[21] = target: T2, human plasma kallikrein; test: cell-based or functional assay; remark: listed apart in the source
[22] = target: trypsin, human pancrease (Cat #16-19-032000, Athens Research and Technology Inc) (human); test: cell-based or functional assay
[23] = target: T2, human plasma kallikrein; test: SPR, 37° C., pH 6 against pH 7.4
[24] = target: T2, human plasma kallikrein; test: cell-based or functional assay; remark: listed apart in the source
[25] = target: T2, human plasma kallikrein; test: SPR, pH 6.0, 37° C.

T1 sequence (P55899 24-297 limits assumed, chain 1 of 2): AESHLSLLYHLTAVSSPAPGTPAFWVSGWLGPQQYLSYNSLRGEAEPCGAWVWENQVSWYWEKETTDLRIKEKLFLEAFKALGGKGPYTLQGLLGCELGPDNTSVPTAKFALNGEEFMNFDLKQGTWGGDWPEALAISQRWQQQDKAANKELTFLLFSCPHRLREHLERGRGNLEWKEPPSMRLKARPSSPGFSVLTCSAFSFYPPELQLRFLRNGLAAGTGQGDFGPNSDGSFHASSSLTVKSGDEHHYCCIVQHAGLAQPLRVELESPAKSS
T1 sequence (P61769 21-119 limits assumed, chain 2 of 2): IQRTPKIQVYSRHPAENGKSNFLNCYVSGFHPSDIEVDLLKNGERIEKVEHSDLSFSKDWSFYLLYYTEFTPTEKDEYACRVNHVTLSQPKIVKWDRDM
T3 sequence (P03952 20-638 limits assumed): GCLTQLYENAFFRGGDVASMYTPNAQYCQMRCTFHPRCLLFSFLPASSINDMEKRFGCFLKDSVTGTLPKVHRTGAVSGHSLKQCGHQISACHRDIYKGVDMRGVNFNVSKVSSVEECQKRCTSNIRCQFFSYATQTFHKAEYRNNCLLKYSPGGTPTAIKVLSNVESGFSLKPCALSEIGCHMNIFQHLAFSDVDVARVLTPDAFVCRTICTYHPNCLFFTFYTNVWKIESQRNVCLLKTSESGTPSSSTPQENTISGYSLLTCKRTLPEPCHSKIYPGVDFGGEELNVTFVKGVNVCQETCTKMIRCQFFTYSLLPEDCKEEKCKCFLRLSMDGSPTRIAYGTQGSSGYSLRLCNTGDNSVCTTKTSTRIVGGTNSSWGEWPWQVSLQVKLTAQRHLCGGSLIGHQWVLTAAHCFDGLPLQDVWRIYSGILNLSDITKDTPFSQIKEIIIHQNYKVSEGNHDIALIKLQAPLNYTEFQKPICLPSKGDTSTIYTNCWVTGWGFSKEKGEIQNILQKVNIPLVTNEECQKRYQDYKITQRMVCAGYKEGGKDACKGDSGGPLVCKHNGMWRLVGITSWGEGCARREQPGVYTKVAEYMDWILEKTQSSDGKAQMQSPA
T2 sequence (P03952 20-390 S143N limits assumed, chain 1 of 2): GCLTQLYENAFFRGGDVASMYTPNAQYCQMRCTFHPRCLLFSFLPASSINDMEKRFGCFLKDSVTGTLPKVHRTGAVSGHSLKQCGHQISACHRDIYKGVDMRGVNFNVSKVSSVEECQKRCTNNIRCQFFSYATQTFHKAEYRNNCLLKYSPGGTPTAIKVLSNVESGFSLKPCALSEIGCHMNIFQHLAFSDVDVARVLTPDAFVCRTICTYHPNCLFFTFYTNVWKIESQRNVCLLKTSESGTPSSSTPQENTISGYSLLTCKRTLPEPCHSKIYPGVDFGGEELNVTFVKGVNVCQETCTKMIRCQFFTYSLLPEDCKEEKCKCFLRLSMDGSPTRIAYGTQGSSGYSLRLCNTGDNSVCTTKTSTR
T2 sequence (P03952 391-638 limits assumed, chain 2 of 2): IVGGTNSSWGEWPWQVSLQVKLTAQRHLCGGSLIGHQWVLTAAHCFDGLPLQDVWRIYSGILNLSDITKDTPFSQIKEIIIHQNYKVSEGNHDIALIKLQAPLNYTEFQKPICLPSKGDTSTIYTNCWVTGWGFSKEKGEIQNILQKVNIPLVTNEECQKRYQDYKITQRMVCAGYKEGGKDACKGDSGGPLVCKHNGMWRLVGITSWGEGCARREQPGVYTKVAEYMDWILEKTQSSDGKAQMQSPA
cynomolgus monkey plasma kallikrein, sequence (P03952 other isoform, or with tags, fused parts or gaps limits assumed): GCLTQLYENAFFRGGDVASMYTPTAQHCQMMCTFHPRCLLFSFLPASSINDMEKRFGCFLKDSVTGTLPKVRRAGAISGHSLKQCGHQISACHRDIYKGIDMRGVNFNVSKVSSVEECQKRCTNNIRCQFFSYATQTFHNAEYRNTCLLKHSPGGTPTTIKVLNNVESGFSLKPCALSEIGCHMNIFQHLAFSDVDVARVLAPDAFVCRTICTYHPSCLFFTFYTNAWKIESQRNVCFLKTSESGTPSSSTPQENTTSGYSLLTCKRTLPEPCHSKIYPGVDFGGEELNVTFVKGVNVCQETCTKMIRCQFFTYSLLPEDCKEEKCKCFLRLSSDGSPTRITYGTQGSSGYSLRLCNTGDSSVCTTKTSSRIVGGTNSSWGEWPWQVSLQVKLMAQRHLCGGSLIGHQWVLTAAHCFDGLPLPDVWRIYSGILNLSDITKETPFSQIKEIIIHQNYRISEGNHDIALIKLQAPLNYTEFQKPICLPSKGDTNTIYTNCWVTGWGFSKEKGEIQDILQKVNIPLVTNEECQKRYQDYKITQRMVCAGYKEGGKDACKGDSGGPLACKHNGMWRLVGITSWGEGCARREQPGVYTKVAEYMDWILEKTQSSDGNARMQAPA
rabbit plasma kallikrein (rabbit), sequence (chain, as listed by the source limits assumed): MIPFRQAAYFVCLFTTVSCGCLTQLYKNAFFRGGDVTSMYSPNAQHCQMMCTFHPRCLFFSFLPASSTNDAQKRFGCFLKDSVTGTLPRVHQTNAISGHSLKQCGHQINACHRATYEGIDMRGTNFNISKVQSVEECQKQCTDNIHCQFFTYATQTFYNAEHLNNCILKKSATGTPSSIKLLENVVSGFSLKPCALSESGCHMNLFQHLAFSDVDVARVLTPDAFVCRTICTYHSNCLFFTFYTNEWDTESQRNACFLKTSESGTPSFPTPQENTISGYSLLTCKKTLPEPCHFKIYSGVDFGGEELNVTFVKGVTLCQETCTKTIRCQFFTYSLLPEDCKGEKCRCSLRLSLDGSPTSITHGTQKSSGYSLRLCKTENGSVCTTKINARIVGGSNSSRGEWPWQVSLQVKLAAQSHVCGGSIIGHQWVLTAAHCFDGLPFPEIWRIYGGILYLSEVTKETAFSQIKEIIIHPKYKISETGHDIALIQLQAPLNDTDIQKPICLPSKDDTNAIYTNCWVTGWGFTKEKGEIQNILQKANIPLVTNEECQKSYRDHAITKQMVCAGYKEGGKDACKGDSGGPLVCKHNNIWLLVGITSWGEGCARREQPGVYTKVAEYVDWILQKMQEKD
rat plasma kallikrein, sequence (P14272 20-638 limits assumed): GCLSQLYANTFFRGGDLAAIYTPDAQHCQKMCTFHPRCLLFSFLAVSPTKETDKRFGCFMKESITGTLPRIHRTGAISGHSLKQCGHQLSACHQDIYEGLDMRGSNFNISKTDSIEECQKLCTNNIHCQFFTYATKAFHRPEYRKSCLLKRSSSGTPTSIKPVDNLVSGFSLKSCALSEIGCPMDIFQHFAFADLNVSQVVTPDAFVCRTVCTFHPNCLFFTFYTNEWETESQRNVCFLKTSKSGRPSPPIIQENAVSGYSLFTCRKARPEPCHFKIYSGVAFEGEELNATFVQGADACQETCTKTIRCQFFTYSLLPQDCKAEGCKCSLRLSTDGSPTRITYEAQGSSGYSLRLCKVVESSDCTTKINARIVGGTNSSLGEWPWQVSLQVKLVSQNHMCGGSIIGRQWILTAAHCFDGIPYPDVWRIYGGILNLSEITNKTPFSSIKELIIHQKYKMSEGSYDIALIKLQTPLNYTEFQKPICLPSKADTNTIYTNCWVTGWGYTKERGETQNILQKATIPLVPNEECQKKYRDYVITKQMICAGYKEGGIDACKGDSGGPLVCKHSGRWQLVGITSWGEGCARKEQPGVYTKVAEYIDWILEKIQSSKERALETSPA

Binder	Kd [1]	koff [1]	kon [1]	Kd [7]	koff [7]	kon [7]	Kd [8]	koff [8]	kon [8]	fold higher affinity for plasma kallikrein than prekallikrein [9]	koff [11]	kon [11]	IC50 (read off the curve), lower panel [12]	Kd [13]	IC50 (read off the curve), lower panel, 10 nM pKal [21]	IC50 (read off the curve) [24]	further results
MAb4-YTE (antibody, human IgG1, kappa, also called Mab-YTE) heavy: QVQLVQSGAEVKKPGSSVKVSCKASGYAFSSYWMNWVRQAPGQGLEWIGQIYPGDDDTNYNAKFQGRVTITVDKSTTTAYMELSSLRSEDTAVYFCAGSLMVTTGAPFDYWGQGTTVTVSSASTKGPSVFPLAPSSKSTSGGTAALGCLVKDYFPEPVTVSWNSGALTSGVHTFPAVLQSSGLYSLSSVVTVPSSSLGTQTYICNVNHKPSNTKVDKRVEPKSCDKTHTCPPCPAPELLGGPSVFLFPPKPKDTLYITREPEVTCVVVDVSHEDPEVKFNWYVDGVEVHNAKTKPREEQYNSTYRVVSVLTVLHQDWLNGKEYKCKVSNKALPAPIEKTISKAKGQPREPQVYTLPPSREEMTKNQVSLTCLVKGFYPSDIAVEWESNGQPENNYKTTPPVLDSDGSFFLYSKLTVDKSRWQQGNVFSCSVMHEALHNHYTQKSLSLSPG light: DIQMTQSPSSLSASVGDRVTITCKASQDVGIAVAWYQQKPGKAPKFLIYYASHRGWGVPDRFSGSGSGTDFTLTISSLQPEDFATYFCQQYRSYPLTFGQGTKLEIKRTVAAPSVFIFPPSDEQLKSGTASVVCLLNNFYPREAKVQWKVDNALQSGNSQESVTEQDSKDSTYSLSSTLTLSKADYEKHKVYACEVTHQGLSSPVTKSFNRGEC	150 nM	0.0277 s⁻¹	184000 M⁻¹ s⁻¹	1300 nM	0.025 s⁻¹	19000 M⁻¹ s⁻¹	1.1 nM	7.3e-05 s⁻¹	69000 M⁻¹ s⁻¹	> 1000 fold	7.7e-05 s⁻¹	86000 M⁻¹ s⁻¹	~20 nM	0.9 nM			fold higher potency than DX-2930, HMWK functional assay [2]: ~10 fold; IC50, inhibition of pKal (1 nM) enzymatic activity on PFR-AMC [3]: 223 pM; IC50, inhibition of pKal (1 nM) enzymatic activity on PFR-AMC [4]: 167 pM; IC50, inhibition of pKal (1 nM) enzymatic activity on PFR-AMC [5]: 352 pM; IC50, inhibition of pKal (1 nM) enzymatic activity on PFR-AMC [6]: 290 pM; Kd [10]: 670 nM; koff [10]: 0.022 s⁻¹; kon [10]: 34000 M⁻¹ s⁻¹; IC50 (read off the curve), upper panel, 30 nM pKal, 600 nM HMWK [12]: ~20 nM
MAb4 (antibody, human IgG1, kappa, Full length human IgG1 kappa; also called unmodified MAb4; parental MAb4) heavy: not shown light: DIQMTQSPSSLSASVGDRVTITCKASQDVGIAVAWYQQKPGKAPKFLIYYASHRGWGVPDRFSGSGSGTDFTLTISSLQPEDFATYFCQQYRSYPLTFGQGTKLEIKRTVAAPSVFIFPPSDEQLKSGTASVVCLLNNFYPREAKVQWKVDNALQSGNSQESVTEQDSKDSTYSLSSTLTLSKADYEKHKVYACEVTHQGLSSPVTKSFNRGEC													~20 nM				Kd [14]: 848 nM; koff [14]: 0.229 s⁻¹; kon [14]: 270000 M⁻¹ s⁻¹
MAb4-LS (antibody, human IgG1, kappa, Human IgG1 kappa) heavy: not shown light: DIQMTQSPSSLSASVGDRVTITCKASQDVGIAVAWYQQKPGKAPKFLIYYASHRGWGVPDRFSGSGSGTDFTLTISSLQPEDFATYFCQQYRSYPLTFGQGTKLEIKRTVAAPSVFIFPPSDEQLKSGTASVVCLLNNFYPREAKVQWKVDNALQSGNSQESVTEQDSKDSTYSLSSTLTLSKADYEKHKVYACEVTHQGLSSPVTKSFNRGEC										> 1000 fold			~20 nM	1.2 nM			Kd [15]: 105 nM; koff [15]: 0.031 s⁻¹; kon [15]: 296000 M⁻¹ s⁻¹; Kd [16]: 670 nM; koff [16]: 0.023 s⁻¹; kon [16]: 34000 M⁻¹ s⁻¹; Kd [17]: 2.2 nM; Kd [18]: 1300 nM; koff [18]: 0.024 s⁻¹; kon [18]: 19000 M⁻¹ s⁻¹; koff [19]: 0.000101 s⁻¹; kon [19]: 83000 M⁻¹ s⁻¹; koff [20]: 8.6e-05 s⁻¹; kon [20]: 39000 M⁻¹ s⁻¹
DX-2930 (antibody) chain 1: not shown chain 2: DIQMTQSPSTLSASVGDRVTITCRASQSISSWLAWYQQKPGKAPKLLIYKASTLESGVPSRFSGSGSGTEFTLTISSLQPDDFATYYCQQYNTYWTFGQGTKVEIKRTVAAPSVFIFPPSDEQLKSGTASVVCLLNNFYPREAKVQWKVDNALQSGNSQESVTEQDSKDSTYSLSSTLTLSKADYEKHKVYACEVTHQGLSSPVTKSFNRGEC	193 nM	0.167 s⁻¹	866000 M⁻¹ s⁻¹	144000 nM	0.05 s⁻¹	600 M⁻¹ s⁻¹	18 nM	0.00056 s⁻¹	31000 M⁻¹ s⁻¹	> 1000 fold	0.0061 s⁻¹	26000 M⁻¹ s⁻¹	~30 nM		~3e-09 M	~0.2 nM	IC50, trypsin inhibition assay (0.25 nM trypsin, PFR-AMC), Data 1 [22]: 243 nM; IC50, trypsin inhibition assay (0.25 nM trypsin, PFR-AMC), Data 2 [22]: 376 nM; fold reduction in KD at pH 6 versus pH 7.4 [23]: > 10 fold; Kd [25]: 236 nM
MAb1 (antibody, V domains shown) VH: QVQLQQSGAELVKPGASVKISCKASGYAFSSYWMNWVKQRPGEGLEWIGQIYPGDDDTNYNGKFKGKATLTVDKSSTTAYMQLSSLTSEDSAVYFCAGSLMVTTGAPFDYWGQGTTLTVSS VL: DIVMTQSHKFMSTSVGDRVSITCKASQDVGIAVAWYQQKPGQSPKFLIYWASTRHTGVPDRFTGSGSGTDFTLTIRNVQSEDLSDYFCQQYRSYPLTFGSGTKLELK															~8e-09 M	~1 nM	IC50 (read off the curve), upper panel, 1 nM pKal [21]: ~1e-09 M
